In patent publication US20250235548A1 (Zymeworks, published 2025):
Positions count from the first letter of the chain named. Like-named read-outs stand apart in the source and are kept apart here.

Key:
[1] = target: T1, KLH (Sigma-Aldrich, H8283); experiment: NS-ELISA, plate coated with KLH, mAb at 100 nM; ratio of signal to a buffer well
T1 construct: Coating protein of the non-specific ELISA (NS-ELISA)
Method: NS-ELISA was used to measure the propensity of the antibodies to bind to a range of biomolecules to emulate the undesirable non-specific interactions to biological matrices in vivo as described below.
NS-ELISA was carried out in Corning@ 96-well EIA/RIA Easy Wash™ Clear Flat Bottom Polystyrene High Bind Microplate coated overnight at 4° C. with 50 μL of Heparin (Sigma, H3149) diluted with 50 mM sodium carbonate pH 9.6 to a final concentration of 250 μg/mL. The plate was incubated for 2 days at room temperature, wells that were coated with heparin were not covered to allow air dry. […] 50 μL each of insulin, KLH, dsDNA and ssDNA were added to a 96 well plate, followed by the incubation at 37° C. for 2 h. The coating materials were removed, and the plate was blocked with 200 μL of Gibco™ PBS pH7.4, 0.1% Tween®20, and incubated for 1 h at room temperature with shaking at 200 rpm. The plate was washed 3 times with Gibco™ PBS pH7.4, 0.1% Tween 20. 50 μL of each mAb at 100 nM (15 mg/mL) in Gibco™ PBS pH 7.4, 0.1% Tween®20 was added in duplicate to the wells and incubated for 1 h at room temperature with shaking at 200 rpm. […] Plates were incubated for 1 h at room temperature, with shaking at 200 rpm. The plate was washed three times with Gibco™ PBS pH7.4, 0.1% Tween 20, and 100 μL of TMB substrate (Cell Signaling Technology©, 7004P6) added to each well. […] Binding scores were calculated as the ratio of the ELISA signal of the antibody to the signal of a well containing buffer instead of the primary antibody. The cutoffs considered for each binding molecule (ssDNA. KLH, Insulin, dsDNA and Heparin) were internally calculated, based on the average of Zymeworks Inc. produced antibodies and antibodies benchmarks published in the literature.

[2] = target: T2, human sodium-dependent phosphate transporter 2B (NaPi2b) (human, UniProt O95436 1-690); experiment: KinExA, IGROV-1 cells, monovalent format
T2 construct: also called hNaPi2b; Hu NaPi2b
T2 sequence: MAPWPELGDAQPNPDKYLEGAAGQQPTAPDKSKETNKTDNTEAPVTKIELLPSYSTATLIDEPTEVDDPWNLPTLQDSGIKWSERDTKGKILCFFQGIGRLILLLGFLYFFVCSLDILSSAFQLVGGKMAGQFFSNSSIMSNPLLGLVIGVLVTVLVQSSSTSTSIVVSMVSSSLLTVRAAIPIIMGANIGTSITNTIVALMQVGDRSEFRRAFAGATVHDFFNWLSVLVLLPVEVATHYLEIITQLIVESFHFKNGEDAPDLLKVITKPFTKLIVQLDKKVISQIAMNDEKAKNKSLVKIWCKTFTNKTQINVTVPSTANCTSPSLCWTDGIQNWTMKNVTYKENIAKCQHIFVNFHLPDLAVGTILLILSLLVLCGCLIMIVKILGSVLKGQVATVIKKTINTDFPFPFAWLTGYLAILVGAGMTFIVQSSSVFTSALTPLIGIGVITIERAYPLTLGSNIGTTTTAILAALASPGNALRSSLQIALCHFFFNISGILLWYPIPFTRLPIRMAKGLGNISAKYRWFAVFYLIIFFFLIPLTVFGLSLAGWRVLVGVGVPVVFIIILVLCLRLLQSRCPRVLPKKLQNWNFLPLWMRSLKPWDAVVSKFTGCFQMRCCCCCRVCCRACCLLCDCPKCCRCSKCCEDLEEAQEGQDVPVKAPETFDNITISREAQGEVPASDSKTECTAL
Method: The cell-binding assay was set up using the antibody constructs or variants as constant binding partner at two different concentrations of 50 μM and 500 μM. For the titration curve with antibody variants fixed at 50 μM, at least 10 million IGROV-1 cells were used as titrant. For the titration curve with antibody variants fixed at 500 μM, at least 5 million cells were used as titrant. The antibody variants and cells were mixed in PBS pH 7.4, 1 mg/mL BSA, 0.2% NaN₃ and incubated at 4° C. for 7 days with gentle rotation until equilibrium was reached. After incubation, the mixture of antibody variants and cells was centrifuged to separate the cells from the unbound free antibody variants.
N-curve analysis was used to calculate the affinity and receptor expression level with the concentrations of antibody variant as reference point.

[3] = target: T2, human sodium-dependent phosphate …; experiment: cell-based or functional assay
cynomolgus monkey NaPi2b = target: T3, cynomolgus monkey NaPi2b (cynomolgus monkey, UniProt O95436 1-690 (human entry)); experiment: flow cytometry, HEK293-6e cells transfected with cynomolgus NaPi2b
T3 construct: also called Cyno NaPi2b; Cy NaPi2b
T3 chain: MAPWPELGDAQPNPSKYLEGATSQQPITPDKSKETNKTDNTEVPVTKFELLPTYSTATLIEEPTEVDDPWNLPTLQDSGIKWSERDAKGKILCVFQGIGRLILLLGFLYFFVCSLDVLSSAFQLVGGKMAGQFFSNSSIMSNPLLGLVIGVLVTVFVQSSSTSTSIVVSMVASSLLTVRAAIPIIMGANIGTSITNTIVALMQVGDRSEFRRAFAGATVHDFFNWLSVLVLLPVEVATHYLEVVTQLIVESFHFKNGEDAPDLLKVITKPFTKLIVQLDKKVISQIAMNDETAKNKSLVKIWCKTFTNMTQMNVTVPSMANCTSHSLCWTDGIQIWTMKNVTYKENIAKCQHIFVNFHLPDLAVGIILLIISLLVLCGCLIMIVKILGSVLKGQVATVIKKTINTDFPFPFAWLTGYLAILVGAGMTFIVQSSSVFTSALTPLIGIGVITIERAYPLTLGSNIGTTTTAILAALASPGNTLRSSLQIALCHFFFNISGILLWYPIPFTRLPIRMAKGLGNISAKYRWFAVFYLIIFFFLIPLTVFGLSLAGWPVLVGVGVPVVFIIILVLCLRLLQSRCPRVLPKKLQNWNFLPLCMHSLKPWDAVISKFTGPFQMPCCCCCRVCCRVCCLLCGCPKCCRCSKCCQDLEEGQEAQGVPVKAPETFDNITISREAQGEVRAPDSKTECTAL

[4] = target: T4, human sodium-dependent phosphate transporter 2B (NaPi2b) (human, UniProt O95436 1-690); experiment: cell-based or functional assay; remark: listed apart in the source
T4 sequence: T2 sequence

[5] = target: T4, human sodium-dependent phosphate …; experiment: cell-based or functional assay; remark: listed apart in the source
[6] = target: T4, human sodium-dependent phosphate …; experiment: cell-based or functional assay; remark: listed apart in the source
[7] = target: T4, human sodium-dependent phosphate …; experiment: cell-based or functional assay; remark: listed apart in the source
[8] = target: T4, human sodium-dependent phosphate …; experiment: cell-based or functional assay; remark: listed apart in the source

B1: v29452 humanized anti-NaPi2b antibody (antibody, human IgG1, kappa, V domains shown)
VH: QVQLVQSGAEVKKPGASVKVSCKASGFTFTSYNVHWVRQAPGQGLEWMGAISPGNGDLSYAQKFQGRVTMTRDTSTSTVYMELSSLRSEDTAVYYCARGRTGMGAVDYWGQGTLVTVSS
VL: DVQMTQSPSSLSASVGDRVTITCRASQDVYSYLNWYQQKPGKAVKLLIYYTSRLQSGVPSRFSGSGSGTDYTLTISSLQPEDIATYYCQQYNIFPWTFGQGTKLEIKR
notes: Full-size IgG1/kappa; also called H1L3
With B1 the NS-ELISA binding score [1] was 1.34.

B2: v36123, monovalent format of humanized antibody variant 29452 (antibody, V domains shown)
VH: B1 VH
VL: DVQMTQSPSSLSASVGDRVTITCRASQDVYSYLNWYQQKPGKAVKLLIYYTSRLQSGVPSRFSGSGSGTDYTLTISSLQPEDIATYYCQQYNIFPWTFGQGTKLEIK
notes: also called VH1/VL3
With B2 the “fold lower binding affinity than chimeric parental antibody construct” value [2] was about 2 fold.

B3: v29456 humanized anti-NaPi2b antibody (antibody, human IgG1, kappa)
heavy: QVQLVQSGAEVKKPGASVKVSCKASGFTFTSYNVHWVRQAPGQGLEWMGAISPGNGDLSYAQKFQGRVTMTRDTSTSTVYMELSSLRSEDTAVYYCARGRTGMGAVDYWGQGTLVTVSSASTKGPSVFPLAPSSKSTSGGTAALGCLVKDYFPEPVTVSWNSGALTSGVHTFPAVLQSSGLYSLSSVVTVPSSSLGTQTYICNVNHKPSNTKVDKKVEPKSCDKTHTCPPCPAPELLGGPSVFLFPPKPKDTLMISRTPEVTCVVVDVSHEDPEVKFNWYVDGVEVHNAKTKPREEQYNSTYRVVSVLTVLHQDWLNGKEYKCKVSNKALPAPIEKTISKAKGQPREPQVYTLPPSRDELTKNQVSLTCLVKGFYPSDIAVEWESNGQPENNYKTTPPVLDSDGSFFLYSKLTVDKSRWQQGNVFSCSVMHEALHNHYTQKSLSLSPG
light: DVQMTQSPSSLSASVGDRVTITCRASQDVYSYLNWYQQKPGKAVKLLIYYTSRLQSGVPSRFSGSGSGTDYTLTISSLQPEDFATYYCQQYNIFPWTFGQGTKLEIKRTVAAPSVFIFPPSDEQLKSGTASVVCLLNNFYPREAKVQWKVDNALQSGNSQESVTEQDSKDSTYSLSSTLTLSKADYEKHKVYACEVTHQGLSSPVTKSFNRGEC
notes: Full-size IgG1/kappa; also called H1L2
In the case of B3, the “Internalized Fluorescence Fold-Over Palivizumab, HCC-78, 5 hrs, 10 nM” value [3] is reported as 25.3 fold, the “Internalized Fluorescence Fold-Over Palivizumab, HCC-78, 24 hrs, 10 nM” value [3] is reported as 59.9 fold and the “Internalized Fluorescence Fold-Over Palivizumab, NCI-H441, 5 hrs, 10 nM” value [3] is reported as 2.4 fold. The “Internalized Fluorescence Fold-Over Palivizumab, NCI-H441, 24 hrs, 10 nM” value [3] was 4 fold, the “fold lower apparent Kd than v18992 (MX35)” value (cynomolgus monkey NaPi2b) was 10 fold and the “fold lower apparent Kd than v18993 (lifastuzumab)” value (cynomolgus monkey NaPi2b) was 2 fold. The NS-ELISA binding score [1] was 1.37.

B4: v36124, monovalent format of humanized antibody variant 29456 (antibody, V domains shown)
VH: B1 VH
VL: B2 VL with I83F
notes: also called VH1/VL2
B4 was tested, and the “fold lower binding affinity than chimeric parental antibody construct” value [2] was about 2 fold.

B5: v23855, parental mouse-human chimeric anti-NaPi2b antibody (antibody, human IgG1, kappa, V domains shown)
VH: QAYLQQSGAELVRPGASVKMSCKASGFTFTSYNVHWVKQTPRQGLEWIAAISPGNGDLSYNQRFKDKATLTVDRSSSTAYMQLSGLTSEDSAVYFCARGRTGMGAVDYWGQGTSVTVSS
VL: DVQMTQTASSLSASLGDRVTISCRASQDVYSYLNWYQQKPHGTVKLLIYYTSRLQSGVPSRFTGSGSGTDYSLTISNLEPEDIATYYCQQYNIFPWTFGGGTKLEIKR
notes: Full-size antibody; also called parental chimeric
For B5, the NS-ELISA binding score [1] was 2.38.

B6: v29456-MT-GGFG-Compound 140 DAR 8 (antibody, human IgG1, kappa)
heavy: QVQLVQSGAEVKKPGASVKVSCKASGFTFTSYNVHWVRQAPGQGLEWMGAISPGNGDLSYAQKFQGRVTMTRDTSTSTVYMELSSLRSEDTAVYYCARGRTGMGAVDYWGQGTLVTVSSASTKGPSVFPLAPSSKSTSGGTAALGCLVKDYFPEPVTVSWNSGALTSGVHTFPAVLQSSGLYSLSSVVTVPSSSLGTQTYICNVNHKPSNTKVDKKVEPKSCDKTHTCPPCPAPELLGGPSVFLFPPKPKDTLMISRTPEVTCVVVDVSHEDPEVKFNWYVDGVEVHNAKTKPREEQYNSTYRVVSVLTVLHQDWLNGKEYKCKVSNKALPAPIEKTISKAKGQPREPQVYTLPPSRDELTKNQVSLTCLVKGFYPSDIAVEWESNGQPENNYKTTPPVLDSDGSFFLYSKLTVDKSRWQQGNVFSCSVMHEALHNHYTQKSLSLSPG
light: B3 light
modifications: MT-GGFG-Compound 140 drug-linker on reduced cysteines (maleimide); DAR 8 for the whole antibody
B6 was tested, and the “EC50 of cytotoxicity, 2D monolayer, HCC-78 cells, 4 days, CellTiter-Glo” value [4] was 0.6 nM, the “EC50 of cytotoxicity, HCC-78 3D spheroids, 6 days, CellTiter-Glo 3D” value [5] was 0.19 nM and the “EC50 of cytotoxicity, IGROV-1 3D spheroids, 6 days, CellTiter-Glo 3D” value [5] was 0.25 nM.

B7: v29456-MT-GGFG-AM-Compound 141 DAR 8 (antibody, human IgG1, kappa)
heavy: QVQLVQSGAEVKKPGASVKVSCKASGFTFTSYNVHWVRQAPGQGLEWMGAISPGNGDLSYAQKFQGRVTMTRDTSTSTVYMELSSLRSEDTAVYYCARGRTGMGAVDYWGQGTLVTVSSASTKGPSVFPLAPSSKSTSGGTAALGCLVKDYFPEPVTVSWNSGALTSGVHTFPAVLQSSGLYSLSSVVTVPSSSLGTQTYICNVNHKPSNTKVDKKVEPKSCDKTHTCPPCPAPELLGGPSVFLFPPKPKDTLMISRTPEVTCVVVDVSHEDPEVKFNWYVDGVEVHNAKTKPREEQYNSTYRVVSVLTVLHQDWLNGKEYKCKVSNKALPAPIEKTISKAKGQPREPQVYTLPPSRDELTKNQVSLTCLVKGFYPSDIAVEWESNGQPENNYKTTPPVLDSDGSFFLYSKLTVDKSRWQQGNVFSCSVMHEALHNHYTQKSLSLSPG
light: B3 light
modifications: MT-GGFG-AM-Compound 141 drug-linker on reduced cysteines (maleimide); DAR 8 for the whole antibody
In the case of B7, the “EC50 of cytotoxicity, 2D monolayer, HCC-78 cells, 4 days, CellTiter-Glo” value [4] is reported as 0.26 nM, the “EC50 of cytotoxicity, 2D monolayer, IGROV-1 cells, 4 days, CellTiter-Glo” value [4] is reported as 1.56 nM and the “EC50 of cytotoxicity, HCC-78 3D spheroids, 6 days, CellTiter-Glo 3D” value [5] is reported as 0.33 nM. The “EC50 of cytotoxicity, IGROV-1 3D spheroids, 6 days, CellTiter-Glo 3D” value [5] was 0.21 nM.

B8: v29456-MC-GGFG-Compound 141 DAR 4 (antibody, human IgG1, kappa)
heavy: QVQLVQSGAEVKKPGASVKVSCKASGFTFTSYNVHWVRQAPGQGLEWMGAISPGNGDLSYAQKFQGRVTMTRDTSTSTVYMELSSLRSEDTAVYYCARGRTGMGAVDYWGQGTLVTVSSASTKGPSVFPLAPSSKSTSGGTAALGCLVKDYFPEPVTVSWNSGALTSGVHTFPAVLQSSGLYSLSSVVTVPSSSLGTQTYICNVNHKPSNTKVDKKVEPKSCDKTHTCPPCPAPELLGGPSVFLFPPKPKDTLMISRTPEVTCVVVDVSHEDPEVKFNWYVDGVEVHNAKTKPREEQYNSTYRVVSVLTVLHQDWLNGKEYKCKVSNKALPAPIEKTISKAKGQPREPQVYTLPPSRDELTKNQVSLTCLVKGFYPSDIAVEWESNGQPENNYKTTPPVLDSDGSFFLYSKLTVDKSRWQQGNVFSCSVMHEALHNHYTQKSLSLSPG
light: B3 light
modifications: MC-GGFG-Compound 141 drug-linker on reduced cysteines (maleimide); target DAR 4, printed DAR 3.4, for the whole antibody
For B8, the “EC50 of cytotoxicity, 2D monolayer, IGROV-1 cells” value [6] was 16.4 nM, the “EC50 of cytotoxicity, IGROV-1 3D spheroids” value [7] was 1.31 nM and the “EC50 of cytotoxicity, TOV-21G:HDFa (1:1) 3D spheroids” value (shortened to “EC50 of cytotoxicity, TOV-21G:HDFa”) [7] was 0.99 nM.

B9: v29456-MC-GGFG-AM-Compound 139 DAR 8 (antibody, human IgG1, kappa)
heavy: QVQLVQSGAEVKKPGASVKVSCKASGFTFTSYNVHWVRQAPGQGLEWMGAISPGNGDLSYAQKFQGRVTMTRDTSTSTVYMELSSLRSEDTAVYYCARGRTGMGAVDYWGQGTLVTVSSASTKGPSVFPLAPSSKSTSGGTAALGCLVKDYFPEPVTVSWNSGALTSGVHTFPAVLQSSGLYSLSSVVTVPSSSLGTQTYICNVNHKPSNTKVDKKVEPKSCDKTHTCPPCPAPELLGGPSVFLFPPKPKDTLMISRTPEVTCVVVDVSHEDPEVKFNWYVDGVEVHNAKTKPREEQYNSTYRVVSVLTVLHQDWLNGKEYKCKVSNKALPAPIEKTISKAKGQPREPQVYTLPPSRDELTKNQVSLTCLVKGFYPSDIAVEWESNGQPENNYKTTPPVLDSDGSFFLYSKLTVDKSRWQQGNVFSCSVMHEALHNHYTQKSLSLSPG
light: B3 light
modifications: MC-GGFG-AM-Compound 139 drug-linker on reduced cysteines (maleimide); DAR 8 for the whole antibody
For B9, the “EC50 of cytotoxicity, 2D monolayer, IGROV-1 cells” value [6] was 0.39 nM, the “EC50 of cytotoxicity, 2D monolayer, TOV-21G cells” value [6] was 4.3 nM and the “EC50 of cytotoxicity, IGROV-1 3D spheroids” value [7] was 0.31 nM. The “EC50 of cytotoxicity, TOV-21G:HDFa” value [7] was 0.24 nM, the “EC50 of cytotoxicity, H441 3D spheroids” value [8] was 1.57 nM and the “EC50 of cytotoxicity, IGROV-1 3D spheroids” value [8] was 0.55 nM. The “EC50 of cytotoxicity, TOV-21G 3D spheroids” value [8] was 0.54 nM.

B10: v29456-MC-GGFG-AM-Compound 139 DAR 4 (antibody, human IgG1, kappa)
heavy: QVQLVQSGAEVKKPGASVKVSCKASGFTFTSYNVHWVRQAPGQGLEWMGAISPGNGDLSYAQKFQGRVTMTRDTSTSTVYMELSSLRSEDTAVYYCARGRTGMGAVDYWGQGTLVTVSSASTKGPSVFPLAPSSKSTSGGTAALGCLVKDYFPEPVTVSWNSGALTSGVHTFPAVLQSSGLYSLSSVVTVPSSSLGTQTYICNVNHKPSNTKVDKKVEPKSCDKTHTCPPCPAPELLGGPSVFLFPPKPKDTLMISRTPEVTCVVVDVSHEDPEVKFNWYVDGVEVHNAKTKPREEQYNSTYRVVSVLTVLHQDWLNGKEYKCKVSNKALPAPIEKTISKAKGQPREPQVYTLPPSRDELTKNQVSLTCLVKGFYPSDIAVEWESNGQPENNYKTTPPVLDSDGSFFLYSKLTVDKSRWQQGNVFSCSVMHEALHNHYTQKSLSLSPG
light: B3 light
modifications: MC-GGFG-AM-Compound 139 drug-linker on reduced cysteines (maleimide); target DAR 4, printed DAR 3.4, for the whole antibody
For B10, the “EC50 of cytotoxicity, 2D monolayer, IGROV-1 cells” value [6] was 5.46 nM, the “EC50 of cytotoxicity, IGROV-1 3D spheroids” value [7] was 0.88 nM and the “EC50 of cytotoxicity, TOV-21G:HDFa” value [7] was 0.76 nM.

B11: v29456-MC-GGFG-Compound 141 DAR 8 (antibody, human IgG1, kappa)
heavy: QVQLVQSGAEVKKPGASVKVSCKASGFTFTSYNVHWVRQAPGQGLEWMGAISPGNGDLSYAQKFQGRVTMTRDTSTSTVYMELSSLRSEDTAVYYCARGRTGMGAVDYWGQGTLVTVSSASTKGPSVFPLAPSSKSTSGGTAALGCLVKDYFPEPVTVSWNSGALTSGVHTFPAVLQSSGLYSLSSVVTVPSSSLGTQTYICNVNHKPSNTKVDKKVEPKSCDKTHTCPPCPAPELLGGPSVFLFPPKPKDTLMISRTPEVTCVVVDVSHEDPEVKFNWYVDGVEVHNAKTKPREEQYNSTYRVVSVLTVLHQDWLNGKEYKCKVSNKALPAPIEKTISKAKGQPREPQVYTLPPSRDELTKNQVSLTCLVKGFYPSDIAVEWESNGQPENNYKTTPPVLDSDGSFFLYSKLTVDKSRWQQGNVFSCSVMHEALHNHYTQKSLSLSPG
light: B3 light
modifications: MC-GGFG-Compound 141 drug-linker on reduced cysteines (maleimide); DAR 8 for the whole antibody
For B11, the “EC50 of cytotoxicity, 2D monolayer, IGROV-1 cells” value [6] was 3.01 nM, the “EC50 of cytotoxicity, 2D monolayer, TOV-21G cells” value [6] was 0.93 nM and the “EC50 of cytotoxicity, IGROV-1 3D spheroids” value [7] was 0.44 nM. For the same binder, the “EC50 of cytotoxicity, TOV-21G:HDFa” value [7] was 0.9 nM.

B12: v29456-MC-GGFG-AM-DXd1 DAR 8 (antibody, human IgG1, kappa)
heavy: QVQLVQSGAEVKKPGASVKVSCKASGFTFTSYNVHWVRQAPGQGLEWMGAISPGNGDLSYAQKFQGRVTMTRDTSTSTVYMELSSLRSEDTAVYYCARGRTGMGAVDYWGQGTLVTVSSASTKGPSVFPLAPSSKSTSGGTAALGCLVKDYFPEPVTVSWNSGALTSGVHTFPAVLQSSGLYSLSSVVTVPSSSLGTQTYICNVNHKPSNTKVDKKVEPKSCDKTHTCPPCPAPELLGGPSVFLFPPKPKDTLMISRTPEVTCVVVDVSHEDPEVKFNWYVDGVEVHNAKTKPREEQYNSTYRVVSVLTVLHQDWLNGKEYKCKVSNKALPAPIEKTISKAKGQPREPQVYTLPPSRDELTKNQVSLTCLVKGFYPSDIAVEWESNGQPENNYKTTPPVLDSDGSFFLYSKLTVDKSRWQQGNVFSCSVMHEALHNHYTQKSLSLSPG
light: B3 light
modifications: MC-GGFG-AM-DXd1 drug-linker on reduced cysteines (maleimide); DAR 8 for the whole antibody
In the case of B12, the “EC50 of cytotoxicity, 2D monolayer, HCC-78 cells, 4 days, CellTiter-Glo (row printed as v29456-MT-GGFG-AM-DXd1)” value [4] is reported as 0.55 nM, the “EC50 of cytotoxicity, 2D monolayer, IGROV-1 cells, 4 days, CellTiter-Glo (row printed as v29456-MT-GGFG-AM-DXd1)” value [4] is reported as 0.45 nM and the “EC50 of cytotoxicity, HCC-78 3D spheroids, 6 days, CellTiter-Glo 3D” value [5] is reported as 0.6 nM. The “EC50 of cytotoxicity, IGROV-1 3D spheroids, 6 days, CellTiter-Glo 3D” value [5] was 0.27 nM.

B13: v18993 (lifastuzumab)-MCvcPABC-MMAE DAR 4 (antibody, human IgG1, kappa)
heavy 1: GEVQLVESGGGLVQPGGSLRLSCAASGFSFSDFAMSWVRQAPGKGLEWVATIGRVAFHTYYPDSMKGRFTISRDNSKNTLYLQMNSLRAEDTAVYYCARHRGFDVGHFDFWGQGTLVTVSSASTKGPSVFPLAPSSKSTSGGTAALGCLVKDYFPEPVTVSWNSGALTSGVHTFPAVLQSSGLYSLSSVVTVPSSSLGTQTYICNVNHKPSNTKVDKKVEPKSCDKTHTCPPCPAPELLGGPSVFLFPPKPKDTLMISRTPEVTCVVVDVSHEDPEVKFNWYVDGVEVHNAKTKPREEQYNSTYRVVSVLTVLHQDWLNGKEYKCKVSNKALPAPIEKTISKAKGQPREPQVYVYPPSRDELTKNQVSLTCLVKGFYPSDIAVEWESNGQPENNYKTTPPVLDSDGSFALVSKLTVDKSRWQQGNVFSCSVMHEALHNHYTQKSLSLSPG
heavy 2: not shown
light: GDIQMTQSPSSLSASVGDRVTITCRSSETLVHSSGNTYLEWYQQKPGKAPKLLIYRVSNRFSGVPSRFSGSGSGTDFTLTISSLQPEDFATYYCFQGSFNPLTFGQGTKVEIKRTVAAPSVFIFPPSDEQLKSGTASVVCLLNNFYPREAKVQWKVDNALQSGNSQESVTEQDSKDSTYSLSSTLTLSKADYEKHKVYACEVTHQGLSSPVTKSFNRGEC
modifications: MCvcPABC-MMAE drug-linker; DAR 4 for the whole antibody; attachment residues not stated
For B13, the “EC50 of cytotoxicity, H441 3D spheroids” value [8] was 11.7 nM, the “EC50 of cytotoxicity, IGROV-1 3D spheroids” value [8] was 0.69 nM and the “EC50 of cytotoxicity, TOV-21G 3D spheroids” value [8] was 25.5 nM.
